From IntAct's records for PubMed 20223215

B1: Low-density lipoprotein receptor-related protein 8 (Homo sapiens), Q14114 (parent)
chain: MGLPEPGPLRLLALLLLLLLLLLLQLQHLAAAAADPLLGGQGPAKDCEKDQFQCRNERCIPSVWRCDEDDDCLDHSDEDDCPKKTCADSDFTCDNGHCIHERWKCDGEEECPDGSDESEATCTKQVCPAEKLSCGPTSHKCVPASWRCDGEKDCEGGADEAGCATLCAPHEFQCGNRSCLAAVFVCDGDDDCGDGSDERGCADPACGPREFRCGGDGGGACIPERWVCDRQFDCEDRSDEAAELCGRPGPGATSAPAACATASQFACRSGECVHLGWRCDGDRDCKDKSDEADCPLGTCRGDEFQCGDGTCVLAIKHCNQEQDCPDGSDEAGCLQGLNECLHNNGGCSHICTDLKIGFECTCPAGFQLLDQKTCGDIDECKDPDACSQICVNYKGYFKCECYPGYEMDLLTKNCKAAAGKSPSLIFTNRHEVRRIDLVKRNYSRLIPMLKNVVALDVEVATNRIYWCDLSYRKIYSAYMDKASDPKEQEVLIDEQLHSPEGLAVDWVHKHIYWTDSGNKTISVATVDGGRRRTLFSRNLSEPRAIAVDPLRGFMYWSDWGDQAKIEKSGLNGVDRQTLVSDNIEWPNGITLDLLSQRLYWVDSKLHQLSSIDFSGGNRKTLISSTDFLSHPFGIAVFEDKVFWTDLENEAIFSANRLNGLEISILAENLNNPHDIVIFHELKQPRAPDACELSVQPNGGCEYLCLPAPQISSHSPKYTCACPDTMWLGPDMKRCYRAPQSTSTTTLASTMTRTVPATTRAPGTTVHRSTYQNHSTETPSLTAAVPSSVSVPRAPSISPSTLSPATSNHSQHYANEDSKMGSTVTAAVIGIIVPIVVIALLCMSGYLIWRNWKRKNTKSMNFDNPVYRKTTEEEDEDELHIGRTAQIGHVYPAAISSFDRPLWAEPCLGETREPEDPAPALKELFVLPGEPRSQLHQLPKNPLSELPVVKSKRVALSLEDDGLP

Variants of: B1
Conditions: with reln_mouse Reln

Row | effect of a mutation on the interaction | Variant
1 | disrupting interaction | P61A
2 | decreasing interaction | D50A
3 | disrupting interaction | D69N
4 | decreasing interaction | V63A
5 | disrupting interaction | W64H
